Target: T1, 161P2F10B variant 1 (human), on the cell surface (human, UniProt O14638 1-875)
T1 construct: Reported to be dimeric on the cell surface; also called 161P2F10B v.1; CD203c
Assay: FACS on KU-812 cells, serial dilutions, one site binding fit

- Kd: 0.02 nM
B1: Ha16-1.42 (antibody, V domains shown)
VH: EVQLVQSGAEVKKPGESLKISCKGSGYRFTSYWIGWVRQMPGKGLEWMGIIYPGDSDTRYSPSFQGQVTISADKSISTAYLQWSSLKASDTAMYYCARKDYYYYSMDVWGQGTTVTVSS
VL: QSALTQPASVSGSPGQSITISCTGTSSDVGRFNYVSWYQQRPGKAPKLMIYAVNIRPSGVSNRFSGSKSGNTASLTISGLQAEDEAGYYCSSYTSSSTLLVFGGGTKLTVLG

Reference: US20110020353A1 (published 2011)
